Among the data in publication PMC5431456 are Kd values, retold here.

The target in test [1] is SubB S106A/T107A (Escherichia coli) (UniProt Q6EZC3). Nature of the test: SPR. For orientation: Surface plasmon resonance follows binding to a sensor surface in real time, without labels.
In test [2] the target is SubB ΔS106/ΔT107 (Escherichia coli) (UniProt Q6EZC3). Nature of the test: SPR.
For test [3], the target named is SubB ΔS106/ΔT107/E108D (Escherichia coli) (UniProt Q6EZC3). Nature of the test: SPR.
Test [4] addresses Subtilase cytotoxin B subunit (SubB), wild type (Escherichia coli) (UniProt Q6EZC3). Nature of the test: SPR; Biacore T100; SubB or SubB mutant immobilised on a series S CM5 chip (flow cell 1 blank); AGP flowed over, 0.01-100 µM in range finding; single cycle kinetics.

As to “human α1-acid glycoprotein (AGP) (from UniProt P02763 19-201) (natural protein)”, the Kd (in general, the concentration at which binding is half-saturated) in test [1] stood at 723 nM; in test [2] it was 1650 nM; in test [3], 2820 nM; in test [4] it was 2120 nM.
